Values of other authors as cited in US20100209353A1, “TUMOR TARGETING PROTEIN CONJUGATE AND A METHOD FOR PREPARING THE SAME” (KOREA INSTITUTE OF SCIENCE AND TECHNOLOGY, priority 2009, published 2010).

Details: conventional albumin

albumin
particle size: 2˜5 nm
